Target: fluorescein-conjugated N-terminal histone H3 peptide with trimethylation at the K9 position (UniProt P68431)
Assay: fluorescence polarisation

| Kd | Substance |
| --- | --- |
| 12 µM | Mpp8 chromodomain with F59 replaced by 3,5-difluorophenylalanine (from UniProt Q99549 55-116) (domain or fragment) |
| > 100 µM | Mpp8 chromodomain with F59 replaced by 3,4,5-trifluorophenylalanine (from UniProt Q99549 55-116) (domain or fragment) |
| > 200 µM | Mpp8 chromodomain with F59 replaced by pentafluoro-phenylalanine (from UniProt Q99549 55-116) (domain or fragment) |
